{
  "source": "paper PMC11997425",
  "about": "“MADS-domain transcription factor AGAMOUS LIKE-9 participates in the gibberellin pathway to promote bud dormancy release of tree peony”",
  "binders": {"B1": {"name": "PsCYCD CArG probe (dsDNA)", "DNA 1": "TTTGGCCAATTTTGGTTAA", "DNA 2": "TTAACCAAAATTGGCCAAA"}, "B2": {"name": "PsCYCD mutant probe (cold-mP) (dsDNA)", "DNA 1": "TTTGGCCGACCGGGGTTAA", "DNA 2": "TTAACCCCGGTCGGCCAAA"}, "B3": {"name": "PsEBB3 CArG probe (dsDNA)", "DNA 1": "ATGTCCATAATTTAGGCCTA", "DNA 2": "TAGGCCTAAATTATGGACAT"}},
  "key": {"[1]": {"molecular_target": "T1, GST-PsAGL9 (Paeonia suffruticosa, UniProt V9I0Q3 1-243)", "T1 sequence (V9I0Q3 entry or part of it)": "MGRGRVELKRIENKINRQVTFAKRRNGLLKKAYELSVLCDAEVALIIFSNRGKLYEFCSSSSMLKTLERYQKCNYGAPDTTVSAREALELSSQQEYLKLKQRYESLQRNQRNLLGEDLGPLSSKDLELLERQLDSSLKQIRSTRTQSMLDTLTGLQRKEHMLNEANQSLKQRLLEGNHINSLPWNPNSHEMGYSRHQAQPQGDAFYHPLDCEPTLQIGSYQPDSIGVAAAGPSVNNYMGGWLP", "test": "EMSA; 10x and 20x cold probe weakened signal; Chemiluminescent EMSA Kit (Beyotime); buffer, salt, pH and temperature not stated", "details": "protein: recombinant; tags: GST (pGEX-4T-1); label: biotin; blunt"}, "[2]": {"molecular_target": "T1, GST-PsAGL9", "test": "competition; 10x and 20x cold mutant probe did not affect signal; Chemiluminescent EMSA Kit (Beyotime); buffer, salt, pH and temperature not stated", "details": "protein: recombinant; tags: GST (pGEX-4T-1)"}, "[3]": {"molecular_target": "T1, GST-PsAGL9", "test": "EMSA; Chemiluminescent EMSA Kit (Beyotime); buffer, salt, pH and temperature not stated", "details": "protein: recombinant; tags: GST (pGEX-4T-1); label: biotin"}},
  "data": [
    {"binder": "B1", "values": [
      {"measurement": "binding result", "setting": "[1]", "result": "binds"}
    ]},
    {"binder": "B2", "values": [
      {"measurement": "binding result", "setting": "[2]", "result": "no binding"}
    ]},
    {"binder": "B3", "values": [
      {"measurement": "binding result", "setting": "[3]", "result": "binds"}
    ]}
  ]
}
